# Reference: US20160271244A1 (DUKE UNIVERSITY, published 2016)
# How the values were obtained:
# HV00044 (6240 TZ5 140C) = target: T1, HV00044 (6240 TZ5 140C) (HIV-1); assay: SPR
# T1 construct: domain: gp140; also called 624008 TA5 gp140; 6240 transmitted founder Env
# A244gD- gp120 = target: T2, A244gD- gp120 (HIV-1); assay: SPR
# T2 construct: domain: gp120
# A244gD+ gp120 [1] = target: T3, A244gD+ gp120 (herpes simplex virus; HIV-1); assay: SPR
# Scl 70 [2] = assay: Athena autoantigen assay, mAb 12.5 ug/ml
# Sm [3] = assay: Athena autoantigen assay, mAb 12.5 ug/ml
# SSB [4] = assay: Athena autoantigen assay, mAb 12.5 ug/ml
# RNP [5] = assay: Athena autoantigen assay, mAb 12.5 ug/ml
# Jo 1 [6] = assay: Athena autoantigen assay, mAb 12.5 ug/ml
# Cent B [7] = target: T4, Cent B; assay: Athena autoantigen assay, mAb 12.5 ug/ml
# T4 construct: also called centromere B
# Histone [8] = assay: Athena autoantigen assay, mAb 12.5 ug/ml
# SSA [9] = assay: Athena autoantigen assay, mAb 12.5 ug/ml
# MN gp120 = target: T5, MN gp120 (HIV-1, UniProt P05877 32-513); assay: ELISA
# T5 construct: domain: gp120
# [10] = target: Env (gp120) of HIV-1 JRFL.N160K.E168K (HIV-1); assay: cell-based or functional assay
# [11] = target: Env (gp120) of HIV-1 isolate JRCSF (HIV-1, UniProt P20871 32-848); assay: cell-based or functional assay
# [12] = target: Env (gp120) of HIV-1 isolate JRFL (virus) (HIV-1); assay: cell-based or functional assay
# [13] = target: Env (gp120) of HIV-1 7165.18.N160K (HIV-1); assay: cell-based or functional assay
# [14] = target: Env (gp120) of HIV-1 isolate Q23.17 (HIV-1); assay: cell-based or functional assay
# [15] = target: Env (gp120) of HIV-1 Q23.17.N160K (HIV-1); assay: cell-based or functional assay
# [16] = target: Env (gp120) of HIV-1 JRFL.E168K (HIV-1); assay: cell-based or functional assay
# [17] = target: Env (gp120) of HIV-1 isolate 7165.18 (HIV-1); assay: cell-based or functional assay
# CM 243 gp120 = target: T6, CM 243 gp120 (HIV-1); assay: ELISA on monomeric Env
# T6 construct: domain: gp120; also called gp120 CM243
# HV00046 (902114 B2 140C) = target: T7, HV00046 (902114 B2 140C) (HIV-1); assay: ELISA on monomeric Env
# T7 construct: domain: gp140
# A244gD+ gp120 [18] = target: T3, A244gD+ gp120; assay: ELISA on monomeric Env
# Scl 70 [19] = assay: Athena autoantigen assay, mAb 25 ug/ml
# Sm [20] = assay: Athena autoantigen assay, mAb 25 ug/ml
# SSB [21] = assay: Athena autoantigen assay, mAb 25 ug/ml
# RNP [22] = assay: Athena autoantigen assay, mAb 25 ug/ml
# Jo 1 [23] = assay: Athena autoantigen assay, mAb 25 ug/ml
# Cent B [24] = target: T4, Cent B; assay: Athena autoantigen assay, mAb 25 ug/ml
# Histone [25] = assay: Athena autoantigen assay, mAb 25 ug/ml
# SSA [26] = assay: Athena autoantigen assay, mAb 25 ug/ml
# Scl 70 [27] = assay: Athena autoantigen assay, mAb 6.25 ug/ml
# Sm [28] = assay: Athena autoantigen assay, mAb 6.25 ug/ml
# SSB [29] = assay: Athena autoantigen assay, mAb 6.25 ug/ml
# RNP [30] = assay: Athena autoantigen assay, mAb 6.25 ug/ml
# Jo 1 [31] = assay: Athena autoantigen assay, mAb 6.25 ug/ml
# Cent B [32] = target: T4, Cent B; assay: Athena autoantigen assay, mAb 6.25 ug/ml
# Histone [33] = assay: Athena autoantigen assay, mAb 6.25 ug/ml
# SSA [34] = assay: Athena autoantigen assay, mAb 6.25 ug/ml
# Sequence of SSB (P05455 whole entry): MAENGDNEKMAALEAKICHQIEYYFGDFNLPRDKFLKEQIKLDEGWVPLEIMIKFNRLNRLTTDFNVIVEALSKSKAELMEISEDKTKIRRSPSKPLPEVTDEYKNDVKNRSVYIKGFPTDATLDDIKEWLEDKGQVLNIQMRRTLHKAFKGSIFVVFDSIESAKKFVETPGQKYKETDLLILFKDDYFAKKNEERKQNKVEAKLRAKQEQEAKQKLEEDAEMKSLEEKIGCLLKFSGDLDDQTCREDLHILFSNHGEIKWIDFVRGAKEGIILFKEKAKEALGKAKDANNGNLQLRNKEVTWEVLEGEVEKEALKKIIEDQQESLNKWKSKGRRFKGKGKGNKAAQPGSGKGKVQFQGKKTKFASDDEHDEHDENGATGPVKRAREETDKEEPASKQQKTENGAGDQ
# Sequence of Jo 1 (P12081 2-509): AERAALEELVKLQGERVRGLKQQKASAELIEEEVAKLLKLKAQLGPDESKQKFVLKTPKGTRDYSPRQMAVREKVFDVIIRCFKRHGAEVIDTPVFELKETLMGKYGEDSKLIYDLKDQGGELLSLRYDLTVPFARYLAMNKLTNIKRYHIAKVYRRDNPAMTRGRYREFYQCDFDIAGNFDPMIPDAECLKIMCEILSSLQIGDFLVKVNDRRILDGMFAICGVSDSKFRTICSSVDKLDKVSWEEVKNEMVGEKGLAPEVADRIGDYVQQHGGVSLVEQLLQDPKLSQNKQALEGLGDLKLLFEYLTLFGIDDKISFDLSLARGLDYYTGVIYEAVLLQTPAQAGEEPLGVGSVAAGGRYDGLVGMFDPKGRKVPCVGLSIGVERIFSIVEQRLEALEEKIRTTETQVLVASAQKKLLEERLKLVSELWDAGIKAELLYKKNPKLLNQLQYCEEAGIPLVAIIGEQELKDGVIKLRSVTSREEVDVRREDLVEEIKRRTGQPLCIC
# T4 sequence (P07199 2-599): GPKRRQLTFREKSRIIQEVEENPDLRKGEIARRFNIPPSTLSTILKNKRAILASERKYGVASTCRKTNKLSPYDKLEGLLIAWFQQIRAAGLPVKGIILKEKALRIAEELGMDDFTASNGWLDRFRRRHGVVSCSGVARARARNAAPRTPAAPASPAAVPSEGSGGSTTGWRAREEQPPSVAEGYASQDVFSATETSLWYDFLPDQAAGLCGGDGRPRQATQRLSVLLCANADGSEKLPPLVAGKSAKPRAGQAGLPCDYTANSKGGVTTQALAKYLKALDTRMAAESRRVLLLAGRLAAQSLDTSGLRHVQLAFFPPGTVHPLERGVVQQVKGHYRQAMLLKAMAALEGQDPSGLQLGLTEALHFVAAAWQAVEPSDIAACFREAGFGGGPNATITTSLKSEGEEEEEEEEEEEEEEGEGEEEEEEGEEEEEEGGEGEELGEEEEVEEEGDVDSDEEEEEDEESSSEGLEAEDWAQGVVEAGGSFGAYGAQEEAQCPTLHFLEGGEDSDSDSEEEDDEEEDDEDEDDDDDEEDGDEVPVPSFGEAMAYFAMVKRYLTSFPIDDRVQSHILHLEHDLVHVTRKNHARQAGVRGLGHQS
binder,measurement,setting,value
"CH01 (antibody, V domains shown, also called 1-27-G2; 27G2) VH: EVQLVESGANVVRPGGSLRLSCKASGFIFENFGFSWVRQAPGKGLQWVAGLNWNGGDTRYADSVKGRFRMSRDNSRNFVYLDMDKVGVDDTAFYYCARGTDYTIDDAGIHYQGSGTFWYFDLWGRGTLVSVSS VL: EIVLTQSPGTLSLSPGERATLSCRASHNVHPKYFAWYQQKPGQSPRLLIYGGSTRAAGIPGKFSGSGSGTDFTLTISRVDPEDFAVYYCQQYGGSPYTFGQGTKVEI",Kd,HV00044 (6240 TZ5 140C),0.3 µM
same,Kd,A244gD- gp120,0.34 µM
same,Kd,A244gD+ gp120 [1],0.0088 µM
same,Athena autoreactivity score,Scl 70 [2],2
same,Athena autoreactivity score,Sm [3],3
same,Athena autoreactivity score,SSB [4],5
same,Athena autoreactivity score,RNP [5],4.5
same,Athena autoreactivity score,Jo 1 [6],2
same,Athena autoreactivity score,Cent B [7],10
same,Athena autoreactivity score,Histone [8],13.5
same,Athena autoreactivity score,SSA [9],5
same,binding result,MN gp120,no binding
same,IC50 (virus neutralization),[10],> 50 µg/mL
same,IC80 (virus neutralization),[10],> 50 µg/mL
same,IC50 (virus neutralization),[11],0.07 µg/mL
same,IC80 (virus neutralization),[11],> 50 µg/mL
same,IC50 (virus neutralization),[12],> 50 µg/mL
same,IC80 (virus neutralization),[12],> 50 µg/mL
same,IC50 (virus neutralization),[13],> 50 µg/mL
same,IC80 (virus neutralization),[13],> 50 µg/mL
same,IC50 (virus neutralization),[14],0.014 µg/mL
same,IC80 (virus neutralization),[14],0.035 µg/mL
same,IC50 (virus neutralization),[15],> 50 µg/mL
same,IC80 (virus neutralization),[15],> 50 µg/mL
same,IC50 (virus neutralization),[16],0.044 µg/mL
same,IC80 (virus neutralization),[16],0.382 µg/mL
same,IC50 (virus neutralization),[17],5.82 µg/mL
same,IC80 (virus neutralization),[17],> 50 µg/mL
same,EC50,CM 243 gp120,12.7 µM
same,EC50,HV00046 (902114 B2 140C),63.2 µM
same,EC50,A244gD+ gp120 [18],7.8 µM
same,Athena autoreactivity score,Scl 70 [19],3
same,Athena autoreactivity score,Sm [20],4
same,Athena autoreactivity score,SSB [21],5.5
same,Athena autoreactivity score,RNP [22],5.5
same,Athena autoreactivity score,Jo 1 [23],2.5
same,Athena autoreactivity score,Cent B [24],14
same,Athena autoreactivity score,Histone [25],17.5
same,Athena autoreactivity score,SSA [26],6.5
same,Athena autoreactivity score,Scl 70 [27],1.5
same,Athena autoreactivity score,Sm [28],2.5
same,Athena autoreactivity score,SSB [29],5.5
same,Athena autoreactivity score,RNP [30],4
same,Athena autoreactivity score,Jo 1 [31],2
same,Athena autoreactivity score,Cent B [32],7
same,Athena autoreactivity score,Histone [33],10
same,Athena autoreactivity score,SSA [34],5.5
